{
  "source": "paper PMC11512355",
  "target": "recombinant porcine astrovirus 4 (PoAstV4) capsid spike protein (porcine astrovirus 4)",
  "experiment": "SEC; Superdex 200 16/600 column in TBS pH 8.0 (10 mM Tris-HCl, 150 mM NaCl), compared with BioRad gel filtration standards",
  "data": [
    {"substance": "recombinant porcine astrovirus 4 (PoAstV4) capsid spike protein (domain or fragment)", "values": [
      {"measurement": "stoichiometry N", "value": 2}
    ]}
  ]
}
